Experimental data: publication PMC8206089, “Split NanoLuc technology allows quantitation of interactions between PII protein and its receptors with unprecedented sensitivity and reveals transient interactions” (Scientific Reports, 2021)

T1: NAGK-SmBiT (N-acetyl-L-glutamate kinase fused to Small BiT) (Synechocystis sp. PCC 6803, UniProt P73326 1-297)
T1 construct: N-acetyl-L-glutamate kinase (NAGK), Synechocystis sp; PCC 6803; Cloned into pTEV5 (NdeI, BamHI); source: E. coli Lemo21, purified (Ni-NTA HisTrap); not shown: SmBiT (after a 16 amino acids flexible linker), C-terminal, kept
T1 sequence (looked up): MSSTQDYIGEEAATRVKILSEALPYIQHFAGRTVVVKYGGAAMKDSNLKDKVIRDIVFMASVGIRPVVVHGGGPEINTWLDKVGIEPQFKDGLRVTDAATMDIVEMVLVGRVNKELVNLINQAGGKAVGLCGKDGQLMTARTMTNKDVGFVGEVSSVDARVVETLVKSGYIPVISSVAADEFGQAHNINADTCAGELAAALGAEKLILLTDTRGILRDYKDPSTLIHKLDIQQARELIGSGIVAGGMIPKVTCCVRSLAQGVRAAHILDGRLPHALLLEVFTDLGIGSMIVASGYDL

T2: NAGK (as used in the Biolayer interferometry of ref. 17) (UniProt P73326 1-297)
T2 construct: N-acetyl-L-glutamate kinase
T2 sequence (looked up): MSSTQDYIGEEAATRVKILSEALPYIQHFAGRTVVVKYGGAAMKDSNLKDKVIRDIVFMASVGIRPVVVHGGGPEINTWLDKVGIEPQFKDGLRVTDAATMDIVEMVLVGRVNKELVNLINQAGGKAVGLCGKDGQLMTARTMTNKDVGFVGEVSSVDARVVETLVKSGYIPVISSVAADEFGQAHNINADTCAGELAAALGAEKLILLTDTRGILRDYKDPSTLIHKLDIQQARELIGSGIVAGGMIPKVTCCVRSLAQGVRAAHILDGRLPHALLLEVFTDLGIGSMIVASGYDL


How the values were obtained:
[1] = biological target: T1, NAGK-SmBiT (N-acetyl-L-glutamate kinase …); assay: split reporter (BiFC, NanoBiT); in solution; NAGK-SmBiT titrated to 10 pM PII-LgBiT; 2 mM ADP and 2 mM NAG; 40 min at 30 °C; conditions: both partners purified
[2] = biological target: T1, NAGK-SmBiT (N-acetyl-L-glutamate kinase …); assay: split reporter (BiFC, NanoBiT); in solution; NAGK-SmBiT titrated to 10 pM PII-LgBiT; 2 mM ADP and 50 mM NAG; 40 min at 30 °C; conditions: both partners purified
[3] = biological target: T1, NAGK-SmBiT (N-acetyl-L-glutamate kinase …); assay: split reporter (BiFC, NanoBiT); in solution; NAGK-SmBiT titrated to 10 pM PII-LgBiT variant; 2 mM ADP; 40 min at 30 °C; apparent KD; conditions: both partners purified
[4] = biological target: T1, NAGK-SmBiT (N-acetyl-L-glutamate kinase …); assay: split reporter (BiFC, NanoBiT); in solution; NAGK-SmBiT titrated to 10 pM PII-LgBiT variant; 2 mM ATP and 2 mM NAG; 40 min at 30 °C; conditions: both partners purified
[5] = biological target: T1, NAGK-SmBiT (N-acetyl-L-glutamate kinase …); assay: split reporter (BiFC, NanoBiT); in solution; NAGK-SmBiT titrated to 10 pM PII-LgBiT variant; 2 mM ATP; 40 min at 30 °C; apparent KD; conditions: both partners purified
[6] = biological target: T1, NAGK-SmBiT (N-acetyl-L-glutamate kinase …); assay: split reporter (BiFC, NanoBiT); in solution; NAGK-SmBiT titrated to 10 pM PII-LgBiT variant; 2 mM ATP and 50 mM NAG; 40 min at 30 °C; conditions: both partners purified
[7] = biological target: T1, NAGK-SmBiT (N-acetyl-L-glutamate kinase …); assay: split reporter (BiFC, NanoBiT); in solution; NAGK-SmBiT titrated to 10 pM PII-LgBiT; 2 mM ATP, 2 mM Arg and 2 mM NAG; 40 min at 30 °C; conditions: both partners purified
[8] = biological target: T1, NAGK-SmBiT (N-acetyl-L-glutamate kinase …); assay: split reporter (BiFC, NanoBiT); in solution; NAGK-SmBiT titrated to 10 pM PII-LgBiT; 2 mM ATP, 2 mM Arg and 50 mM NAG; 40 min at 30 °C; conditions: both partners purified
[9] = biological target: T1, NAGK-SmBiT (N-acetyl-L-glutamate kinase …); assay: split reporter (BiFC, NanoBiT); in solution; NAGK-SmBiT titrated to 10 pM PII-LgBiT variant; no effector molecules; 40 min at 30 °C; apparent KD; conditions: both partners purified
[10] = biological target: T1, NAGK-SmBiT (N-acetyl-L-glutamate kinase …); assay: split reporter (BiFC, NanoBiT); in solution; NAGK-SmBiT (3-666 nM) titrated to 10 pM PII-LgBiT variant; 2 mM ATP and 2 mM arginine; 40 min at 30 °C; conditions: both partners purified
[11] = biological target: T2, NAGK (as used in the Biolayer …); assay: BLI; binding curves of ref. 17 re-calculated here by curve fitting from association and dissociation kinetics (Octet data analysis HT software); apparent KD

Kd [1] | Kd [2] | Kd [3] | Kd [4] | Kd [5] | Kd [6] | Kd [7] | Kd [8] | Kd [9] | Kd [10] | Kd [11] | Binder
14.9 nM | 1.2 nM | 30.8 nM | 4.7 nM | 8.8 nM | 0.74 nM | 16.5 nM | 9.5 nM | 12.9 nM | 17.8 nM | – | PII-LgBiT (wild-type PII protein from Synechocystis sp. PCC6803 fused to Large BiT) (natural protein, UniProt Q55247 1-112, looked up, PII signalling protein, Synechocystis sp; PCC 6803; LgBiT is fused at the C-terminally located Strep-tag purification linker of PII; cloned in pASK-IBA3; also called PII (WT); source: E. coli Lemo21, purified (Strep-Tactin Superflow); not shown: Strep-tag, internal (between PII and LgBiT), kept; LgBiT, C-terminal, kept) MKKVEAIIRPFKLDEVKIALVNAGIVGMTVSEVRGFGRQKGQTERYRGSEYTVEFLQKLKIEIVVDEGQVDMVVDKLVSAARTGEIGDGKIFISPVDSVVRIRTGEKDTEAI
– | – | 11.7 nM | 4.1 nM | 7 nM | 0.68 nM | – | – | 12.9 nM | 1.56 nM | – | PII-I86N-LgBiT (PII variant I86N fused to Large BiT) (natural protein, Synechocystis sp. PCC6803, UniProt Q55247 1-112, looked up, PII signalling protein, Synechocystis sp; PCC 6803, variant I86N; Same fusion as m1 with I86N; the text once words the change as 'IIe86 to Asp86'; source: E. coli Lemo21, purified (Strep-Tactin Superflow); not shown: Strep-tag, internal (between PII and LgBiT), kept; LgBiT, C-terminal, kept) MKKVEAIIRPFKLDEVKIALVNAGIVGMTVSEVRGFGRQKGQTERYRGSEYTVEFLQKLKIEIVVDEGQVDMVVDKLVSAARTGENGDGKIFISPVDSVVRIRTGEKDTEAI
– | – | 95.3 nM | 10.7 nM | 155 nM | 3.39 nM | – | – | 133 nM | 432 nM | – | PII-S49E-LgBiT (phosphomimetic T-loop variant of PII fused to Large BiT) (natural protein, Synechocystis sp. PCC6803, UniProt Q55247 1-112, looked up, PII signalling protein, Synechocystis sp; PCC 6803, variant S49E; Same fusion as m1 with S49E; also called S49E PII variant; source: E. coli Lemo21, purified (Strep-Tactin Superflow); not shown: Strep-tag, internal (between PII and LgBiT), kept; LgBiT, C-terminal, kept) MKKVEAIIRPFKLDEVKIALVNAGIVGMTVSEVRGFGRQKGQTERYRGEEYTVEFLQKLKIEIVVDEGQVDMVVDKLVSAARTGEIGDGKIFISPVDSVVRIRTGEKDTEAI
– | – | – | – | – | – | – | – | – | – | 11.7 ± 0.005 nM | PII (as used in the Biolayer interferometry of ref. 17) (natural protein, UniProt Q55247 1-112, looked up, PII signalling protein) MKKVEAIIRPFKLDEVKIALVNAGIVGMTVSEVRGFGRQKGQTERYRGSEYTVEFLQKLKIEIVVDEGQVDMVVDKLVSAARTGEIGDGKIFISPVDSVVRIRTGEKDTEAI
